Assay results reported in patent publication US7399847 (GENERAL HOSPITAL, dated 2008).

Target: T1, PSGL-1-NH2/CD34-COOH (UniProt Q14242 18-117; P28906 30-385)
T1 construct: range mature amino terminus-117;range 30-end (end not numbered), on cells; Cotransfected with FTVIIh; also called PSGL-1 apical domain on CD34
T1 sequence: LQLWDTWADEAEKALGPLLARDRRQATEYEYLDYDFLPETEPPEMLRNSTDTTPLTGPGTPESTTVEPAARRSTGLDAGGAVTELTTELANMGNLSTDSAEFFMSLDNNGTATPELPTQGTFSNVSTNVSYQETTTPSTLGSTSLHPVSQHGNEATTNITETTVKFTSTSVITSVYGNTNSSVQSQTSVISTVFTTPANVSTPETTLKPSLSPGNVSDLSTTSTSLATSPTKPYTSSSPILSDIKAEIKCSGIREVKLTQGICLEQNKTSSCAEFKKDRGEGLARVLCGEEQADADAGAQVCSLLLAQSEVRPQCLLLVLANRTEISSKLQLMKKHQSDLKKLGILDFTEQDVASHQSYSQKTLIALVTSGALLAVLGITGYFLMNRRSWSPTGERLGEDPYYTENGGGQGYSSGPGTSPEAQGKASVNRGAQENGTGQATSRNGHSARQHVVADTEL
Assay: adhesion of 51Cr-labelled transfected COS cells to immobilized P-selectin:Ig
Procedure: To assess the importance of these residues, the tyrosines were converted to phenylalanine (FIG. 9A). In a second peptide, the threonines were converted to alanines. In addition, a third peptide, containing a quintuple mutation, was prepared such that both conversions were made in a single peptide. […] Cells expressing the resulting chimeras were tested for their ability to bind to immobilized P-selectin (FIG. 9A). […] Expression of the flu tag or sLe^x epitope was not affected in these cells.

B1: P-selectin:immunoglobulin fusion protein (Fc fusion, UniProt P16109 42-321, looked up)
chain: WTYHYSTKAYSWNISRKYCQNRYTDLVAIQNKNEIDYLNKVLPYYSSYYWIGIRKNNKTWTWVGTKKALTNEAENWADNEPNNKRNNEDCVEIYIKSPSAPGKWNDEHCLKKKHALCYTASCQDMSCSKQGECLETIGNYTCSCYPGFYGPECEYVRECGELELPQHVLMNCSHPLGNFSFNSQCSFHCTDGYQVNGPSKLECLASGIWTNKPPQCLAAQCPPLKIPERGNMTCLHSAKAFQHQSSCSFSCEEGFALVGPEVVQCTASGVWTAPAPVCKA
notes: domain: lectin, EGF-related, and first two short consensus repeat related domains; Made in COS cells; captured from supernatant on wells coated with goat anti-human IgG Fc; also called soluble P-selectin; P-selectin Ig chimera; not shown: hinge, CH2, and CH3 domains of human IgG1
- binding result: binds
